Laboratory results reported in publication PMC9304036 (Proceedings of the National Academy of Sciences of the …, 2022).
Substitutions are numbered along the chain they refer to.

B1: ADG20 Fab (Fab, V domains shown)
VH: EVQLVESGGGLVKPGGSLRLSCAASGFTFSSYYMNWVRQAPGKGLEWVSSISEDGYSTYYPDSLKGRFTISRDSAKNSLYLQMNSLRADDTAVYYCARDFSGHTAWAGTGFEYWGQGTLVTVSS
VL: QPVLTQPPSVSGAPGQRITISCTGSSSNIGAGYDVHWYQQLPGTAPKLLIYGSSSRNSGVPDRFSGSKSGTSASLAITGLQAEDEADYYCQSYDSSLSVLYTFGTGTKVTVL
notes: also called ADG-2 (same Fab domain)
B2: ADI-55688 Fab (Fab, V domains shown)
VH: B1 VH with E53S, S57N, W106V
VL: B1 VL with N57P, T102V
notes: also called parental antibody of ADG20
B3: ADG20 IgG (antibody, V domains shown)
VH: B1 VH
VL: B1 VL
notes: copies: 2 + 2

Tests used:
[1] = target: SARS-CoV-2 spike receptor-binding domain (RBD), residues 333 to 529, wild type, for crystallization (SARS-CoV-2 Wuhan-Hu-1 (QHD43416.1), UniProt P0DTC2); assay: crystal structure; conditions: both partners purified
[2] = target: SARS-CoV-2 RBD, ancestral (wild type), for biolayer interferometry (SARS-CoV-2 Wuhan-Hu-1 (ancestral), UniProt P0DTC2); assay: BLI; Octet Red; […] (15 µg/mL) […] (AHC) biosensors; […]; 1x PBS pH 7.4, 0.01% BSA, 0.002% Tween 20; association 90 s, dissociation 90 s; 1:1 binding model; conditions: both partners purified

| Binder | binding result [1] | binding result [2] |
| --- | --- | --- |
| B1 | binds |  |
| B2 | binds |  |
| B3 |  | binds |
